Reference: the nanobody polyreactivity screen of Harvey et al. (2022)

Assay: yeast display, Sf9 membrane polyspecificity reagent, FACS + sequencing; frameworks hold sequencing errors
Summary of the method: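 Polyreactivity labels are assigned by the sorting gate from which each nanobody was recovered. The gates were low and high (top ~1%), set on anti-HA fluorescence for expression and streptavidin fluorescence for reagent binding. Before sorting, galactose-induced (36–48 hours) yeast display cells were stained for 1 hour at 4 °C with 10% biotinylated, detergent-solubilized Sf9 membrane reagent.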

| Sequence | polyreactivity (PSR sort gate) |
| --- | --- |
| QVQLVESGGGLVQAGGSLRLSCAASGSIRYYAMGWYRQAPVKEREFVAAISRRGSSTNYADSVKGRFTISRDNAKNTVYLQMNSLKPDDTAVYYCARGLDVISYGYDYWGQGTQVTVSS | high polyreactivity |
| QVQLVESGGGLVQAGGSLRLSCAASGSIRYYYVMGWYRQAPGKERELVAAITSGGSTYYADSVKGRFTISRDNAKNTVYLQMNSLKPEDTAVYYCNARTRSLTGSRFNYWGQVTQVTVSS | high polyreactivity |
| QVQLVESGGGLVQAGGSLRLSCAASGSISAGNAMGWYRQAPGKERELVAAITTSGGSTYYADSVKGRFTISRDNAKNTVYLQMNSLKPEDTAVYYCNVDPRKRSYDYWGQGTQVTVSS | high polyreactivity |
| QVQLVESGGGLVQAGGSLRLSCAASGSISDSNAMGSYRQAPGKERELVAAIDDSGGSTYYADSVKGRFTISRDNAKNTVYLQMNSLKPEDTAVYYCAKTKTQYLTSEIRFVYWGQGTQVTVSS | low polyreactivity |
| QVQLVESGGGLVQAGGSLRLSCAASGSISDTYGMGWYRQAPGKERELVASITWSSGSTDYADSVKGRFTISRDNAKNTVYLQMNSLKPAETAVYYCATYEPFYSFIFRGIYDYWGQGTQVTVSS | low polyreactivity |
| QVQLVESGGGLVQAGGSLRLSCAASGSISFYAMGWYRQAPGKERELVAAITTSGGRTYYADSVKGRFTISRDNAKNTVYLQMNSLKPEDTAVYYCNVASKGRYARYAAEYGSWGQGTQVTVSS | high polyreactivity |
| QVQLVESGGGLVQAGGSLRLSCAASGSISGLYAMGWYRQAPGKERELVARIRWRGDSTYYADSVKGRFTISRDNAKNTVYLQMNSLNPEDTAVYYCAASAYSGKVNKYNYWGQGTQVTVSS | high polyreactivity |
| QVQLVESGGGLVQAGGSLRLSCAASGSISGLYAMGWYRQAPGKESELVAAISFSGGSTYYADSVKGRFTISRDNAKNTVYFQMNSLKPEDTAVYYCAADGQYGGVPNTSEWTFDYWGQGTQVTVSS | low polyreactivity |
| QVQLVESGGGLVQAGGSLRLSCAASGSISGRYAMGWYRQAPGKERELVAAISWIGGSTYYADSVKGRFTISRDNAKNTVYLQMNSLKPEDTAVYYCNVTIDTRTHPLLVVFYGYDYWGQGTQVTVSS | low polyreactivity |
| QVQLVESGGGLVQAGGSLRLSCAASGSISGSNDMGWYRQAPGKERELVAAISGGSSTNYADSVKGRFTISRDNAKNTVYFQMNSLKPEDTAVYYCAARYRWFFFYGPHSPGYNYWGQGTQVTVSS | high polyreactivity |
| QVQLVESGGGLVQAGGSLRLSCAASGSISGVYAMGWYRQAAGKDRALVAASSGGSGRTYYADSVKGRFTISRDNAKNTVYLQMISLKPEDTAVYYCAKTVLYSSYRKYDYWGQGSQVTVSS | high polyreactivity |
| QVQLVESGGGLVQAGGSLRLSCAASGSISGYNAMGWYRPAPGKERELVAVITTDGSTNYADSVKGRFTISRDNAKNTVYLQMNSLKPEDTAVYYCNTDDGWRLLWEYDYWGQGTQVTVSS | low polyreactivity |
| QVQLVESGGGLVQAGGSLRLSCAASGSISGYYAMGWYRQAPGKERELVASIRYTGARTYYADSVKGRFTISRDNAKNTVYLQMNSLKPEDTAVYYCAADFRSVFSKYSYYLYFDFDYWGQGTQVTVSS | low polyreactivity |
| QVQLVESGGGLVQAGGSLRLSCAASGSISKINAMGWYRQAPGKERELVAAINTGDSTYYADSVKGRFTISRDNAKNTVYLQMNSLKPEDTAVYYCATVVYTWFLAEEDDYCGQGTQVTVSS | low polyreactivity |
| QVQLVESGGGLVQAGGSLRLSCAASGSISPQNVMGWYRQAPGKERELVAAITWTGTSTYADSVKGRFTISRDNAKNTVYLQMNSLKPEDTAVYYCAARYYAPRWFRYDYWGQGTQVTVSS | low polyreactivity |
| QVQLVESGGGLVQAGGSLRLSCAASGSISPQNVMGWYTQAPGKERELVAAITGGGSTNYADSVKGRFTISRDNAKNTVFLLMNSLKPEDTAVYYCNADYFQDRLDYWGQGTQVTVSS | low polyreactivity |

| Sequence | polyreactivity (PSR sort gate) |
| --- | --- |
| QVQLVESGGGLVQAGGSLRLSCAASGSISQTYAMGWYRQAPGKERELVAAISSSGASTYYADSVKGRFTISRDNAKNTVYLQMNSLKPEDTAVYYCAVVPSSTYHSYDYWGQGTQVTVSS | high polyreactivity |
| QVQLVESGGGLVQAGGSLRLSCAASGSISRFYAMGWYRQAPGKERELVAAISWSGGRPYYADSVKGRFTISRDKAKNTVYLQMNSLKPEDTAVYYCNAYRRYNDEDYWGQGTQVTVSS | high polyreactivity |
| QVQLVESGGGLVQAGGSLRLSCAASGSISRGNVMGWYRQAPGKERELVAGITRGGRTNYADSVKGRFTISRDNAKNTVYLQMNSLKPEDTAVYYCATYTYYVPWRQRGGYPDFDYWGQGTQVTVSS | high polyreactivity |
| QVQLVESGGGLVQAGGSLRLSCAASGSISRRYVMGWYRQAPGKERELVAAISTSGGSTYYADSVKGRFTISRDNAKNTVYLQMNSLKPEDTAVYYCAADLPVQGGFDYWGQGTQVTVSS | low polyreactivity |
| QVQLVESGGGLVQAGGSLRLSCAASGSISSKNAMGWYRQAPGKEREFGAVISGTGGSTYYADSVKGRFTISRDNAKNTVYLQMNSLKPEDTAVYYCAAAASSIVSYGYTWTYGYWGQGTQVTVSS | low polyreactivity |
| QVQLVESGGGLVQAGGSLRLSCAASGSISSKNAMGWYRQAPGKEREFVAVISGTGGSTYYADSVKGRFTISRDNAKNTVYLQMNSLKPEDTAVYYCAAAASSIVSYGYTWTYGYWGQGTQVTVSS | low polyreactivity |
| QVQLVESGGGLVQAGGSLRLSCAASGSISSQYGMGWYRQAPGKERELVATIRDGGRTNYADSVKGRFTISRDNAKNTVYLQMNCLKPEDTAVYYCAALYWYYYTWPLYDYWGQGSQVTVSS | low polyreactivity |
| QVQLVESGGGLVQAGGSLRLSCAASGSISVDNTMGWYRQAPGKERELVAAISRSGGTTYYADSVKGRFTISRDNAKNTVYLQMNSLKPEDTAVYYCAKDTLRYRWRSYDYYPEMNYWGQGTQVTVSS | low polyreactivity |
| QVQLVESGGGLVQAGGSLRLSCAASGSISVPNAMGWYRQAPGKERELVAGITSGDSTHYADSVKGRFSISRDNAKNTVYIQMISLKPEDTAVYYCAAKVPEPPSLDESDYWGQGTQVTVSA | low polyreactivity |
| QVQLVESGGGLVQAGGSLRLSCAASGSISVRNVMGWYRQAPGKERELVATIRRTGGSTSYADSVKGRFTISRDNAKNTVYLQMNSLKPEDTAVYYCAAVGYTTYRRYDYWGQGTQVTVSS | low polyreactivity |
| QVQLVESGGGLVQAGGSLRLSCAASGSISVVNMGWYRQPPRKERQFVASITSSGSTTYADSVKGRFTISRDNAKNTVYLQMNSLKPEDTAVYYCAADVGTDYTYQHPAGAAYDYWGEGTQVTVSS | low polyreactivity |
| QVQLVESGGGLVQAGGSLRLSCAASGSISVVYDMGWYRQAPGTERELVAAIDWSGGSTYYADSVKGRFTISRDNAKNTVYLQMNSLKPEDTAVYYCAADDKVRYYWGQGTQVTVSS | low polyreactivity |
| QVQLVESGGGLVQAGGSLRLSCAASGSISVYNAMGWYRPAPGKERELVAAISWSGGRTSYADSVKGRFTISRDHAKNTVYLQMNSLKPEDTAVYYCAADELSVLWDEDYWGQVTQVTVSS | low polyreactivity |
| QVQLVESGGGLVQAGGSLRLSCAASGSISWAYVMGWYRQAPGKERELVAAISSGTSTYYADSVKGRFTLSRDNAKKTVYLQMNSLKPEDTAVYYCAAYYYSYPTNGGYGYWGQGTQVTVSS | low polyreactivity |
| QVQLVESGGGLVQAGGSLRLSCAASGSISWYYAMGWYRQAPGKEWEGVAAISDSGGDTYYADSVKGRFTISRDNAKNTVYLQMNSLKPEDTAVYYCAAQYRGSYRTTYDYWGQGTQVTVSS | low polyreactivity |
